Several values for one entry are separate records, joined by “and”; a condition that tells them apart may be missing. Equal entries are not always repeated.
Columns and labels:
[1] = target: IZ-CD95L (after His-tag cleavage with TEV protease) (human); experiment: SEC; Superdex 75 10/300 GL (Fig. 3A) or ENrich SEC 70 10 x 300 (Fig. 3B, C); PBS pH 7.4, 0.3 ml/min; sizes from a standard curve of protein standards; peak shares from Gaussian fits
[2] = target: CD95-His (Sino Biological) (UniProt P25445)
[3] = target: CD95-His (Sino Biological) (UniProt P25445); experiment: ELISA; CD95-His coated at 2 µg/ml in PBS overnight at 4 °C; biotin-IZ-CD95L or FLAG-CD95L 0.1 nM to 100 nM in 0.5% BSA/PBST, 2 h at r.t.; detected with anti-CD95L antibody and HRP secondary; 4-parameter logistic fit
biotin-IZ-CD95L (human) = experiment: SEC; Superdex 75 10/300 GL (Fig. 3A) or ENrich SEC 70 10 x 300 (Fig. 3B, C); PBS pH 7.4, 0.3 ml/min; sizes from a standard curve of protein standards; peak shares from Gaussian fits

CD95-His (Sino Biological), sequence (P25445 26-173): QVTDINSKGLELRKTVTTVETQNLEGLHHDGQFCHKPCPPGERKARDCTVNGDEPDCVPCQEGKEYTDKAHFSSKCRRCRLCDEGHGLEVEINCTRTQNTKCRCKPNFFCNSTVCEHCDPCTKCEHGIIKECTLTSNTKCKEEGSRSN

percent of the protein in the trimer peak (Peak B, Gaussian fit) [1]	stoichiometry N [1]	Max (%) of apoptotic Hela WT cells (endogenous CD95), apoptosis dynamics assay, 1000 ng/ml ligand [2]	Kd [3]	percent of the protein in the trimer peak (Peak B, Gaussian fit) (biotin-IZ-CD95L (human))	stoichiometry N (biotin-IZ-CD95L (human))	Substance
55%	3 and 2	72.9%	–	–	–	IZ-CD95L (after His-tag cleavage with TEV protease) (ligand)
–	–	75.7%	0.68 nM	48%	3 and 2	biotin-IZ-CD95L (ligand)

Reference: publication PMC12219679
